Reference: patent US11021531 (CENTIVAX, dated 2021)
Residue numbers refer to the chain shown, from its start.

How the values were obtained:
[1] = target: SARS-Cov-2 Receptor Binding Domain (RBD) protein (SARS-CoV-2, UniProt P0DTC2 319-541); experiment: SPR (Carterra LSA), scFv captured via anti-V5, RBD as analyte, 1:1 fit
[2] = target: SARS-CoV-1 Receptor Binding Domain (RBD) protein (SARS-CoV-1, UniProt P59594 306-527); experiment: SPR (Carterra LSA), scFv captured via anti-V5, RBD as analyte
[3] = target: MERS Receptor Binding Domain (RBD) protein (MERS coronavirus, UniProt K9N5Q8 367-606); experiment: as above
[4] = target: SARS-CoV-2 spike protein (on pseudovirus / virus in the neutralisation assays) (SARS-CoV-2, UniProt P0DTC2 14-1273); experiment: cell-based or functional assay

B1: COVID19_R01_A04 (scFv, V domains shown)
VH: EVQLVESGGGLVQPGGSLRLSCAASGFTFSDHYMSWVRQAPGKGLEWVSAISTSGDSTFYADSVKGRFTISRDNSKNTLYLQMNNLRAEDTAVYYCARDRSYYLDYWGQGTLVTVSS
VL: EIVMTQSPATLSVSPGERATLSCRASQSVRSNLAWYQQKPGQAPRLLIYGASTRATGIPARFSGSGSGTEFTLTISSLQSEDFAVYYCQQFGTSPPGLSFGGGTKVEIKR
Binder B1 has a Kd [1] of 10.9 nM, a koff [1] of 0.012 s⁻¹ and a kon [1] of 1.1e+06 M⁻¹ s⁻¹.

B2: COVID19_P04_G03 (scFv, V domains shown)
VH: EVQLVESGGGLVQPGGSLRLSCAASGFTVSSNYMNWVRQAPGKGLEWVSVVYPGGSTYYADSVKGRFTISRDNSKNTLYLQMNSLRAEDTAVYYCARDRSYYLDYWGQGTLVTVSS
VL: not shown
For B2, the binding result [2] was “no binding (tested: 300 nM (highest analyte concentration))”, the binding result [3] was “no binding (tested: 300 nM (highest analyte concentration))” and the Kd [1] was 7.1 nM. For the same binder, the koff [1] was 0.00045 s⁻¹ and the kon [1] was 63000 M⁻¹ s⁻¹.

B3: COVID19_R01_B10 (scFv, V domains shown)
VH: B2 VH with N35S, V51I, Y58F
VL: EIVMTQSPATLSVSPGERATLSCRASQSVSSSYLAWYQQKPGQAPRLLIYGASTRATGIPARFSGSGSGTEFTLTISSLQSEDFAVYYCQQASSTPLTFGGGTKVEIKR
B3 was tested, and the Kd [1] was 30.4 nM, the koff [1] was 0.00294 s⁻¹ and the kon [1] was 96900 M⁻¹ s⁻¹.

B4: COVID19_P04_G05 (scFv, V domains shown)
VH: B2 VH with F27L, T28S, S30T, N35S, V51I, Y58F
VL: not shown
With B4 the binding result [2] was “no binding (tested: 300 nM (highest analyte concentration))”, the binding result [3] was “no binding (tested: 300 nM (highest analyte concentration))” and the Kd [1] was 0.72 nM. It also gave a koff [1] of 5.7e-05 s⁻¹ and a kon [1] of 79000 M⁻¹ s⁻¹.

B5: COVID19_R01_D02 (scFv, V domains shown)
VH: EVQLVESGGGLVQPGGSLRLSCAASGFTFDDYAMHWVRQAPGKGLEWVAIIYEGGSPHYADSVKGRFTISRDNSKNTLYLQMNSLRAEDTAVYYCARDRSGYLDYWGQGTLVTVSS
VL: EIVMTQSPATLSVSPGERATLSCRASQSVSNNLAWYQQKPGQAPRLLIYDASTRATGIPARFSGSGSGTEFTLTISSLQSEDFAVYYCQQYNNWPPTFGGGTKVEIKR
In the case of B5, the “IC50 [µg/mL] plaque” value [4] is reported as under 3 µg/mL, the “IC50 [µg/mL] pseudotyped lenti neutralization” value [4] is reported as 0.62 µg/mL and the Kd [1] is reported as 2.8 nM. It also gave a koff [1] of 0.00058 s⁻¹ and a kon [1] of 210000 M⁻¹ s⁻¹.

B6: COVID19_P04_B09 (scFv, V domains shown)
VH: EVQLVESGGGLVQPGGSLRLSCAASGFTFSNSDMNWVRQAPGKGLEWVSAISGTGDTTEYADSVKGRFTISRDNSKNTLYLQMNSLRAEDTAVYYCARDRSLMLDYWGQGTLVTVSS
VL: B5 VL with S30R, N31S, D50G, Y91R
For B6, the binding result [2] was “no binding (tested: 300 nM (highest analyte concentration))”, the binding result [3] was “no binding (tested: 300 nM (highest analyte concentration))” and the Kd [1] was 1.4 nM. It also gave a koff [1] of 0.00032 s⁻¹ and a kon [1] of 230000 M⁻¹ s⁻¹.

B7: COVID19_P04_B10 (scFv, V domains shown)
VH: EVQLVESGGGLVQPGGSLRLSCAASGFRFSDAAIHWVRQAPGKGLEWVSAISGSGGSTYYADSVKGRFTISRDNSKNTLYLQMNSLRAEDTAVYYCARDRSYGIDYWGQGTLVTVSS
VL: not shown
B7 was tested, and the binding result [2] was “no binding (tested: 300 nM (highest analyte concentration))”, the binding result [3] was “no binding (tested: 300 nM (highest analyte concentration))” and the Kd [1] was 2.5 nM. The koff [1] was 0.0005 s⁻¹ and the kon [1] was 200000 M⁻¹ s⁻¹.

B8: COVID19_P04_B03 (scFv, V domains shown)
VH: B1 VH with D31N, T53G, D56G, F59Y, N85S
VL: EIVMTQSPATLSVSPGERATLSCRASQSIGTYLSWYQQKPGQAPRLLIYGASTRATGIPARFSGSGSGTEFTLTISSLQSEDFAVYYCQQSLSLPVTFGGGTKVEIKR
B8 was tested, and the binding result [2] was “no binding (tested: 300 nM (highest analyte concentration))”, the binding result [3] was “no binding (tested: 300 nM (highest analyte concentration))” and the Kd [1] was 19.7 nM. It also gave a koff [1] of 0.0141 s⁻¹ and a kon [1] of 716000 M⁻¹ s⁻¹.

B9: COVID19_P04_D08 (scFv, V domains shown)
VH: EVQLVESGGGLVQPGGSLRLSCAASGFTFTNYAMTWVRQAPGKGLEWVSTMSNIGGDTYYADSVKGRFTISRDNSKNTLYLQMNSLRAEDTAVYYCARDRRVYLDYWGQGTLVTVSS
VL: DIQMTQSPSSLSASVGDRVTITCRASQSISSYLNWYQQKPGKAPKLLIYAASSLQSGVPSRFSGSGSGTEFTLTISSLQSEDFAVYYCQQYGSSPLTFGGGTKVEIKR
In the case of B9, the binding result [2] is reported as “no binding (tested: 300 nM (highest analyte concentration))”, the binding result [3] is reported as “no binding (tested: 300 nM (highest analyte concentration))” and the Kd [1] is reported as 40.7 nM. It also gave a koff [1] of 0.0113 s⁻¹ and a kon [1] of 279000 M⁻¹ s⁻¹.

B10: COVID19_R01_B01 (scFv, V domains shown)
VH: EVQLVESGGGLVQPGGSLRLSCAASGFTFASHAMSWVRQAPGKGLEWVSGISSDGSITTYADSVKGRFTISRDNSKNTLYLQMNSLRAEDTAVYYCARDRGWYLDYWGQGTLVTVSS
VL: not shown
B10 showed a Kd [1] of 12.5 nM, a koff [1] of 0.00055 s⁻¹ and a kon [1] of 44000 M⁻¹ s⁻¹.

B11: COVID19_R01_C08 (scFv, V domains shown)
VH: EVQLVESGGGLVQPGGSLRLSCAASGFSFSSYGMSWVRQAPGKGLEWVSAMNRDGSYIYYADSVKGRFTISRDNSKNTLYLQMNSLRAEDTAVYYCARDRSYYVGYWGQGTLVTVSS
VL: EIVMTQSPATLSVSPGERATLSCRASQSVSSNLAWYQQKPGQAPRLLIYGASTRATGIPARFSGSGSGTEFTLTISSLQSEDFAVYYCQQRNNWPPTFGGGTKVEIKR
notes: also called COVID19_R01_CO8
B11 showed a Kd [1] of 49.5 nM, a koff [1] of 0.00379 s⁻¹ and a kon [1] of 76600 M⁻¹ s⁻¹.

B12: COVID19_P04_E10 (scFv, V domains shown)
VH: B11 VH
VL: B5 VL with S30R, N31S, D50G, Y91R
B12 was tested, and the binding result [2] was “no binding (tested: 300 nM (highest analyte concentration))”, the binding result [3] was “no binding (tested: 300 nM (highest analyte concentration))” and the Kd [1] was 4.4 nM. It also gave a koff [1] of 0.00053 s⁻¹ and a kon [1] of 120000 M⁻¹ s⁻¹.
